Experimental data from patent US20030153066A1 (University of California, published 2003).

Biological target: HIV-1 Gag Pr55 (wild-type) (HIV-1, UniProt P03348 1-512, N-terminal myristoylation (reactions with MCoA))
Assay: cell-based or functional assay

B1: WGHP68-Tr1 (other)
chain: MADRLTRIAIVSEDKCKPKKCRQECKKSCPVVKTGKLCIEVSPVAKLAFISEELCIGCGICVKKCPFDAIEIINLPKDLEKDTTHRYGPNTFKLHRLPVPRPGQVLGLVGTNGIGKSTALKVLAGKLKPNLGRFKNPPDWQEILTYFRGSELQNYFTRILEDNLKAIIKPQYVDHIPKAVQGNVGQVLEQKDERDMKNELCVDLELNQVIDRNVGDLSGGELQRFAIAVVAVQSAEIYMFDEPSSYLDVKQRLKAARVIRSLLRSNSYVIVVEHDLSVLDYLSDFICCLYGKPGAYGVVTLPFSVREGINIFLAGFVPTENLRFRDESLTFKIAETQESAEEVATYQRYKYPTMSKTQGNFKLSVVEGEFTDSQIVVM
  amount of HIV-1 Gag protein in the medium of co-transfected Cos-1 cells (virion production): 4.7 fold
